US7053177B1, “Random peptides that bind to gastro-intestinal tract (GIT) transport receptors and related methods” (Cytogen Corporation, priority 1997, dated 2006)
Like-named read-outs stand apart in the source and are kept apart here. Ends that are not written are not given here.

What was measured:
hPEPT1 = target: T1, hPEPT1 (Homo sapiens, UniProt P46059); assay: Receptor ELISA of phage on recombinant hPEPT1; format: binding; details: Table 4
T1 construct: 391–571; made in house
T1 sequence (P46059 391-571): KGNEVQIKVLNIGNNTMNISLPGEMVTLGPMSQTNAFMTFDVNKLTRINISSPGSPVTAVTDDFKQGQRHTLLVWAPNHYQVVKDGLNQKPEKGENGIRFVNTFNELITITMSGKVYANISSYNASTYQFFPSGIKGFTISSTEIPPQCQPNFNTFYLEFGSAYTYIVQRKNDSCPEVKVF
Procedure: (§1) 96 well plates were coated overnight with GIT receptor, BSA and, optionally, IDE (insulin degrading enzyme, an irrelevant His-fusion protein)or hTF. The plates were blocked for one hour with 0.5% BSA-PBS. After clarification, the amplified phage were diluted 1:100 in 1% BSA plus 0.05% Tween 20 in PBS and added to the plates. Following incubation of the plates on a rotator for 1 to 2 hours, the plates were washed 5 times with 1% BSA plus 0.05% Tween 20 in PBS. […] After the plates were washed 5 times, as described above, TMB substrate was added to the wells. The plates were read at 650 nm absorbance.

[1] = tested on: rat gastro-intestinal tract (closed loop); assay: Transport of preselected phage libraries in rat closed loop, detected by oligonucleotide hybridization/autoradiography; details: hPEPT1 pool; in words
Procedure: Four preselected phage libraries, GI-D2H, GI-hSI, GI-HPT1 and GI-hPEPT1, were constructed by pooling phage previously selected by screening random phage display libraries D38 and DC43 using the HPT1, HPEPT1, D2H and hSI receptor or binding sites located in the GIT.
In particular, phages selected in vitro to each receptor or binding site located in the GIT were amplified in E. coli, PEG-precipitated, resuspended in TBS and the titer of each phage sample was determined by plaquing in E. coli as described above. […] Using the in situ loop model described above, 0.5 ml of preselected phage library solution was injected into the tied-off portion of the duodenum/jejunum. Blood was collected into heparinized tubes from the portal vein at 0, 15, 30, 45 and 60 minutes. A blood sample was taken from the systemic circulation at the end of the experiment. Similarly, the portion of the duodenum/jejunum used for phage injection was taken at the end of the experiment.
Thirty microliters of the collected portal blood (neat and 10^−2, 10^−1, 10^−6 dilutions) was added to 30 μl E. coli K91Kan cells (overnight culture) and incubated at 37° C. for 10 min. Subsequently, 3 ml of top agarose was added and the samples were plated for plaques. One hundred microliters of the collected portal blood was added to 100 μl of E. coli K91Kan. Five milliliters of LB medium was then added and the samples were incubated at 37° C. overnight in a rotating microbial incubator. The E. coli was removed by centrifugation and the amplified phage supernatant samples were either titered directly or were PEG-precipitated, resuspended in TBS and titered. Following titration of the amplified phage, samples containing phage from each set of animals were combined, adjusting the titer of each sample to the same titer, and were plated for plaques on LB agar lates (22 cm^2 square plates). Either 12,000 or 24,000 phage were lated for plaques.
Thirty microliters of the collected systemic blood (neat and 10^−2, 10^−1, 10^−6 dilutions) was added to E. coli K91Kan cells, incubated at 37° C. for 10 min. Three ml of top agarose was then added and the samples were plated for plaques. One hundred microliters of the collected systemic blood was added to 100 μl of E. coli K91Kan, incubated at 37° C. for 10 min. Five milliliters of LB medium was then added and the samples were incubated at 37° C. overnight in a rotating microbial incubator. The E. coli was removed by centrifugation and the amplified phage supernatant samples were either titered directly or were PEG-precipitated, resuspended in TBS and titered. Following titration of the amplified phage, samples containing phage from each set of animals were combined, adjusting the titer of each sample to the same titer, and were plated for plaques on LB agar plates (22 cm^2 square plates). Either 12,000 or 24,000 phage were plated for plaques.
The intestinal tissue portion used in each closed loop was excised. […] Alternatively, the tissue (in PBS supplemented with protease inhibitors) was homogenized in an Ultra Thorex homogenizer, washed 3 times in PBS containing protease inhibitors and resuspended in PBS containing protease inhibitors (Int-G samples). In each case, serial dilutions (neat and 10^−2, 10^−4, 10^−6 dilutions) of the tissue homogenate was titered in E. coli.
The phage amplified from the portal blood, systemic blood and intestinal tissue was plated for plaques. […] The filters were air-dried, and the DNA was cross-linked to the filter (UV crosslinking: 2 min, high setting). The filters were incubated in pre-hybridization buffer (6×SSC, 5× Denhardt's solution, 0.1% SDS, […] yeast tRNA) at 40° C.–45° C. for at least 60 min.
Synthetic oligonucleotides, (22-mers), complimentary to regions coding for the receptor or binding sites used to create the preselected phage library, were synthesized (see Table 14 below).

BSA = BSA (Bos taurus, UniProt P02769); assay: Receptor ELISA of phage on BSA (background control protein); format: binding; details: Table 4; phage panned on hPEPT1
Procedure: 96 well plates were coated overnight with GIT receptor, BSA and, optionally, IDE (insulin degrading enzyme, an irrelevant His-fusion protein)or hTF. The plates were blocked for one hour with 0.5% BSA-PBS. After clarification, the amplified phage were diluted 1:100 in 1% BSA plus 0.05% Tween 20 in PBS and added to the plates. Following incubation of the plates on a rotator for 1 to 2 hours, the plates were washed 5 times with 1% BSA plus 0.05% Tween 20 in PBS. Dilute anti-M13-HRP conjugate (anti-M13 antibody linked to horse radish peroxidase (HRP)) was added to all the wells and the plate was incubated for one hour on a rotator. After the plates were washed 5 times, as described above, TMB substrate was added to the wells. The plates were read at 650 nm absorbance.

[2] = target: T2, recombinant D2H receptor domain (human D2H transporter, amino acid residues 387-685), His-tag fusion protein (human, UniProt Q07837 387-685); assay: phage ELISA, OD on D2H over OD on BSA
T2 construct: purified under denaturing conditions; coated on plates
T2 sequence: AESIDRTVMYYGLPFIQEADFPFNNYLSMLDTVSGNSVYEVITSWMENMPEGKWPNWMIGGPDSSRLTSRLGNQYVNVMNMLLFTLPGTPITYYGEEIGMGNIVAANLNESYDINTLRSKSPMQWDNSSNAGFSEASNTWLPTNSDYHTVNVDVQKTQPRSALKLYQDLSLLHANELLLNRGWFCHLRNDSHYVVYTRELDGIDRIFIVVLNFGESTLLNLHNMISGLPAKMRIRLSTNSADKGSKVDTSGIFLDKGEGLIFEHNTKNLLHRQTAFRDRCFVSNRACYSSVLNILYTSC
Procedure: as §1, with “6.6. Receptor ELISA Procedure 96” for “96”
Binding to fixed Caco-2 cells, D2H and BSA was examined.

[3] = target: bovine serum albumin (bovine) (UniProt P02769); assay: phage ELISA on coated BSA
[4] = target: T3, recombinant HPT1 receptor domain (human intestinal peptide-associated transporter HPT1, amino acid residues … (human, UniProt Q12864 29-273)); assay: phage ELISA, OD on HPT1 over OD on BSA
T3 construct: purified under denaturing conditions; coated on plates
T3 sequence: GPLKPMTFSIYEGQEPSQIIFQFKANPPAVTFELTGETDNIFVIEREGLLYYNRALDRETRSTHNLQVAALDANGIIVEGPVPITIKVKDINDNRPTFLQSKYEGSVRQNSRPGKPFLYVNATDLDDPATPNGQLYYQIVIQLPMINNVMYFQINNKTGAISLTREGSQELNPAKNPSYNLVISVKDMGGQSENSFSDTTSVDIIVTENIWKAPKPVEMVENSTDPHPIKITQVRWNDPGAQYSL
Procedure: as §1, with “6.6. Receptor ELISA Procedure 96” for “96”

[5] = target: T4, recombinant HPT1 receptor domain (human intestinal peptide-associated transporter HPT1, amino acid residues 29-273), His-tag fusion protein (human) (UniProt Q12864); assay: phage ELISA on coated HPT1
T4 sequence: T3 sequence

[6] = target: T4, recombinant HPT1 receptor domain (human intestinal peptide-associated transporter HPT1, amino acid residues 29-273), His-tag fusion protein (human); assay: phage ELISA, OD on HPT1 over OD on BSA
[7] = target: T5, recombinant D2H receptor domain (human D2H transporter, amino acid residues 387-685), His-tag fusion protein (human), Q07837; assay: phage ELISA on coated D2H
T5 chain: T2 sequence

[8] = target: bovine serum albumin (bovine) (UniProt P02769); assay: phage ELISA on coated BSA; remark: listed apart in the source
[9] = target: T5, recombinant D2H receptor domain (human …); assay: phage ELISA, OD on D2H over OD on BSA
[10] = target: T6, recombinant hSI receptor domain (human sucrase-isomaltase complex, amino acid residues 272-667), His-tag … (human, UniProt P14410 272-667); assay: phage ELISA, OD on hSI over OD on BSA
T6 construct: purified under denaturing conditions on Ni-NTA agarose; coated on plates; also called hS1
Procedure: as §1, with “6.6. Receptor ELISA Procedure 96” for “96”

[11] = target: T6, recombinant hSI receptor domain (human …); assay: phage ELISA on coated hSI
Procedure: as §1, with “6.6. Receptor ELISA Procedure 96” for “96”

Chain of bovine serum albumin (bovine) (P02769 25-607 limits assumed): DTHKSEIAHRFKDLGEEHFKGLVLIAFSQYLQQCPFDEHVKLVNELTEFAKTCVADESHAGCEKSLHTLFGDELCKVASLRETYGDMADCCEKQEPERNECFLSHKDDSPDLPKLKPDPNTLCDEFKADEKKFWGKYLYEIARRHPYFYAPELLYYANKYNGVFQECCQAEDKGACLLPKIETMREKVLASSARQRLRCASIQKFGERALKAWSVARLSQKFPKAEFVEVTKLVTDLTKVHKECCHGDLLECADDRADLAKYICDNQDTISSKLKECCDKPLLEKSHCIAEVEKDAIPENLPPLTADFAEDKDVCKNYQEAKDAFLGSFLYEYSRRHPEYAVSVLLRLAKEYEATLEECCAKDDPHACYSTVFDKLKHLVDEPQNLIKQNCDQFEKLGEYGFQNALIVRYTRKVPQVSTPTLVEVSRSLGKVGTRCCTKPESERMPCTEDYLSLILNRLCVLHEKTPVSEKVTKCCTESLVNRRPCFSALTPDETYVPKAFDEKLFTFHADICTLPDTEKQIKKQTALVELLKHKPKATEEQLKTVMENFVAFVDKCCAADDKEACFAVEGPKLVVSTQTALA
T6 sequence (P14410 272-667 limits assumed, form in doubt, one chain of several): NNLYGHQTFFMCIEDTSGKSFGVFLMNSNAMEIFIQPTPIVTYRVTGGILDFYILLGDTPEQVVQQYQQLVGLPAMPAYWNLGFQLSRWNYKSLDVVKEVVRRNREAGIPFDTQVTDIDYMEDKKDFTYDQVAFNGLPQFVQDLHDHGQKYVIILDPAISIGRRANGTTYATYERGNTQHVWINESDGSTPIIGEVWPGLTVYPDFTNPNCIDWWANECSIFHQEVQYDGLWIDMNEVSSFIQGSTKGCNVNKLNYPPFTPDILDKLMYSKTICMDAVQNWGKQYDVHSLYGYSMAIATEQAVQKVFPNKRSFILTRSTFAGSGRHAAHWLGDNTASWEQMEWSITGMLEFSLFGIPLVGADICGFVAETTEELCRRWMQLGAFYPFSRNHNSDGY
Chain of BSA (P02769 25-607): as the sequence (P02769 25-607 limits assumed) above

Molecule: RGSTGTAGGERSGVLNLHTRDNASGSGFKPWYPSNRGHK (not fully specified) [Peptide 5PAX5]
- hPEPT1 (hPEPT1; phage panned on hPEPT1): 0.15 OD
- PEPT1/BSA (hPEPT1; ratio of hPEPT1 to BSA binding): 4
- Binding to / presence in the intestine samples [1]: not found
- Presence in the portal circulation [1]: not found
- Presence in the systemic circulation [1]: found in the systemic circulation
- BSA (BSA): 0.036 OD

B1: phage DCX36 (peptide)
peptide: SWSSWNWSSKTTRLGDRATREGCGPSQSDGCPYNGRLTTVKPRT
notes: M13 phage displaying this insert as N-terminal pIII fusion; whole phage in the ELISA
- D2H/BSA [2]: 5 ratio

B2: phage HAX40 (peptide)
peptide: REFAERRLWGCDDLSWRLDAEGCGPTPSNRAVKHRKPRPRSPAL
modifications: cysteine pairing not given here; also: displayed as N-terminal pIII fusion on M13 phage
notes: M13 phage displaying this insert as N-terminal pIII fusion; whole phage in the ELISA; also called H44; not shown: M13 pIII display protein and the vector-encoded flanking residues
- OD [3]: 0.065 OD 650 nm
- HPT/BSA [4]: 15 ratio

B3: phage HAX42 (peptide, not shown: large carriers)
peptide: SDHALGTNLRSDNAKEPGDYNCCGNGNSTGRKVFNRRRPSAIPT
modifications: cysteine pairing not given here; also: displayed as N-terminal pIII fusion on M13 phage
- OD [5]: 0.32 OD 650 nm
- OD [3]: 0.071 OD 650 nm
- HPT/BSA [6]: 5

Molecule: SGSLNAWQPRSWVGGAFRSHANNNLNPKPTMVTRHPT (modifications not checked) [phage DCX39]
- OD [7]: 0.299 OD 650 nm
- OD [8]: 0.066 OD 650 nm
- D2H/BSA [9]: 5

Molecule: SREEANWDGYKREMSHRSRFWDATHLSRPRRPANSGDPN (peptide, not shown: large carriers, also: displayed as N-terminal pIII fusion on M13 phage) [phage HAX9]
- OD [5]: 0.382 OD 650 nm
- OD [3]: 0.075 OD 650 nm
- HPT/BSA [6]: 5

B4: phage S21 (peptide)
peptide: SPRSFWPVVSRHESFGISNYLGCGYRTCISGTMTKSSPIYPRHS
notes: as for B1
- OD [3]: 0.092 OD 650 nm
- hSI/BSA [10]: 9 ratio
- OD [11]: 0.845 OD 650 nm

B5: phage HCA3 (peptide)
peptide: RHISEYSFANSHLMGGESKRKGCGINGSFSPTCPRSPTPAFRRT
modifications: cysteine pairing not given here; also: displayed as N-terminal pIII fusion on M13 phage
notes: M13 phage displaying this insert as N-terminal pIII fusion; whole phage in the ELISA; not shown: M13 pIII display protein and the vector-encoded flanking residues
- OD [3]: 0.038 OD 650 nm
- HPT1/BSA [4]: 1 ratio
